Read-outs that look alike come from different tables or passages of the source.
Tests used:
[1] = target: T1, human nerve growth factor (human, UniProt P01138 122-241); assay: BIAcore SPR screen, Fab over immobilised human NGF
T1 construct: Immobilised on CM5 chips for BIAcore, soluble in neuron survival assays; also called human NGF; hNGF
Method: (§1) A screening BIAcore assay was optimized to determine the affinity of Fab clones from libraries. Supernatants of small culture lysates were injected at […] for 2 min. Dissociation times of 10 to 15 minutes were used for determination of a single exponential dissociation rate (koff) using BIAevaluation software. […] Clones showing improved (slower) koff values were expressed at large scale and full kinetic parameters, kₒₙ and koff, were determined on purified protein.
(§2) 20-80 clones from each small library were screened using BIAcore analysis as described herein. Samples were simultaneously analyzed by BIAcore for binding affinity to NGF in one channel of the BIAcore chip and for presence of Fab by binding to a penta-histag antibody in another channel of the sensor chip, to detect the his tag at the C terminus of the heavy chain. Clones that expressed protein were classified as having the same affinity, worse affinity, better affinity or no binding, using koff to classify: The results of this analysis are shown in Table 5.

[2] = target: T1, human nerve growth factor; assay: BIAcore SPR screen, Fab over immobilised human NGF; KD calculated from koff with kon 4e4 M-1s-1
Method: as §1, §2

[3] = target: T1, human nerve growth factor; assay: BIAcore SPR screen, Fab over immobilised human NGF; remark: listed apart in the source
Method: as §1
(§3) For affinity screening experiments, each library was further paired with the corresponding CDR-grafted light or heavy chain (for example, the H1/H2 library was paired with CDR-grafted light chain), the antibody was expressed, and affinity to human NGF of the individual clones was screened using the BIACORE surface plasmon resonance (SPR) system (BIAcore, Inc. Piscataway, N.J.) according to the manufacturer's instructions and as described above. koff, kₒₙ and KD were determined. Antibody clones were ranked based on koff rates, since generally most variation in affinity is seen in koff rates, and further because koff rates are independent of antibody concentration.

[4] = target: T1, human nerve growth factor; assay: BIAcore SPR screen, Fab over immobilised human NGF; KD calculated from koff with kon 4e4 M-1s-1; remark: listed apart in the source
Method: as §1, §3

[5] = target: T1, human nerve growth factor; assay: as above; remark: listed apart in the source
Method: as §1

[6] = target: T1, human nerve growth factor; assay: BIAcore SPR screen, Fab over immobilised human NGF; remark: listed apart in the source
Method: as §1

T1 sequence (P01138 122-241 limits assumed): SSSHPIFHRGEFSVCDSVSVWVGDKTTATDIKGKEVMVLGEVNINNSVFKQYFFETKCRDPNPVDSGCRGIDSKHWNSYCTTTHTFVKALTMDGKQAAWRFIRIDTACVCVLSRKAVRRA

Binder | koff [3] [s⁻¹] | Kd [4] [nM] | other results
8L2-6D5 Fab with CDR L3 mutation Y96R (Fab, V domains shown, See note of m8) VH: QVQLQESGPGLVKPSETLSLTCTVSGFSLIGYDINWIRQPPGKGLEWIGMIWGDGTTDYNSALKSRVTISKDTSKNQFSLKLSSVTAADTAVYYCARGGYYYGTSYYFDYWGQGTLVTVS VL: DIQMTQSPSSLSASVGDRVTITCRASQDISNHLNWYQQKPGKAPKLLIYYISRFHSGVPSRFSGSGSGTDFTFTISSLQPEDIATYYCQQSKTLPRTFGQGTKLEIKR |  |  | koff [1]: 0.0017 s⁻¹; Kd [2]: 42 nM
heavy chain library clone H28 (Fab, V domains shown, See note of m8) VH: QVQLQESGPGLVKPSETLSLTCTVSGFSLIGYDSTWIRQPPGKGLEWIGSIWGDGTTDYNSALKSRVTISKDTSKNQFSLKLSSVTAADTAVYYCARGGYYYGTSYYFDYWGQGTLVTVS VL: DIQMTQSPSSLSASVGDRVTITCRASQDISNHLNWYQQKPGKAPKLLIYYISRFHSGVPSRFSGSGSGTDFTFTISSLQPEDIATYYCQQSKTLPYTFGQGTKLEIKR | 0.00075 | 18.7 | 
heavy chain library clone H18 (Fab, V domains shown, See note of m8) VH: QVQLQESGPGLVKPSETLSLTCTVSGFSLIGYDATWIRQPPGKGLEWIGGIWGDGTTDYNSAVKSRVTISKDTSKNQFSLKLSSVTAADTAVYYCARGGYYYGTSYYFDYWGQGTLVTVS VL: DIQMTQSPSSLSASVGDRVTITCRASQDISNHLNWYQQKPGKAPKLLIYYISRFHSGVPSRFSGSGSGTDFTFTISSLQPEDIATYYCQQSKTLPYTFGQGTKLEIKR | 0.00042 | 10.5 | 
8L2-6D5 template Fab with L_S91E; L_K92A and H_Y101W; H_G103A (Fab, V domains shown, See note of m8) VH: QVQLQESGPGLVKPSETLSLTCTVSGFSLIGYDINWIRQPPGKGLEWIGMIWGDGTTDYNSALKSRVTISKDTSKNQFSLKLSSVTAADTAVYYCARGGYWYATSYYFDYWGQGTLVTVS VL: DIQMTQSPSSLSASVGDRVTITCRASQDISNHLNWYQQKPGKAPKLLIYYISRFHSGVPSRFSGSGSGTDFTFTISSLQPEDIATYYCQQEATLPYTFGQGTKLEIKR |  |  | Kd [5]: 13 nM; koff [6]: 0.00055 s⁻¹
heavy chain library clone H225 (Fab, V domains shown, See note of m8) VH: QVQLQESGPGLVKPSETLSLTCTVSGFSLIGYDVTWIRQPPGKGLEWIGGIWGDGTTDYNSSVKSRVTISKDTSKNQFSLKLSSVTAADTAVYYCARGGYYYGTSYYFDYWGQGTLVTVS VL: DIQMTQSPSSLSASVGDRVTITCRASQDISNHLNWYQQKPGKAPKLLIYYISRFHSGVPSRFSGSGSGTDFTFTISSLQPEDIATYYCQQSKTLPYTFGQGTKLEIKR | 0.00038 | 9.5 | 
heavy chain library clone H19 (Fab, V domains shown, See note of m8) VH: QVQLQESGPGLVKPSETLSLTCTVSGFSLIGYDLNWIRQPPGKGLEWIGIIWGDGTTDYNSAVKSRVTISKDTSKNQFSLKLSSVTAADTAVYYCARGGYYYGTSYYFDYWGQGTLVTVS VL: DIQMTQSPSSLSASVGDRVTITCRASQDISNHLNWYQQKPGKAPKLLIYYISRFHSGVPSRFSGSGSGTDFTFTISSLQPEDIATYYCQQSKTLPYTFGQGTKLEIKR | 0.00024 | 6 | 
light chain library clone L208 (Fab, V domains shown, See note of m8) VH: QVQLQESGPGLVKPSETLSLTCTVSGFSLIGYDINWIRQPPGKGLEWIGMIWGDGTTDYNSALKSRVTISKDTSKNQFSLKLSSVTAADTAVYYCARGGYYYGTSYYFDYWGQGTLVTVS VL: DIQMTQSPSSLSASVGDRVTITCRASQYISNHLNWYQQKPGKAPKLLIYYTSRFHSGVPSRFSGSGSGTDFTFTISSLQPEDIATYYCQQSKTLPYTFGQGTKLEIKR | 0.00046 | 11 | 
heavy chain library clone H109 (Fab, V domains shown, paired with the CDR-grafted light chain; See note of m8) VH: QVQLQESGPGLVKPSETLSLTCTVSGFSLIGYDSNWIRQPPGKGLEWIGIIWGDGTTDYNSALKSRVTISKDTSKNQFSLKLSSVTAADTAVYYCARGGYYYGTSYYFDYWGQGTLVTVS VL: DIQMTQSPSSLSASVGDRVTITCRASQDISNHLNWYQQKPGKAPKLLIYYISRFHSGVPSRFSGSGSGTDFTFTISSLQPEDIATYYCQQSKTLPYTFGQGTKLEIKR | 0.00016 | 4 | 
heavy chain library clone H222 (Fab, V domains shown, See note of m8) VH: QVQLQESGPGLVKPSETLSLTCTVSGFSLIGYDVTWIRQPPGKGLEWIGGIWGDGTTDYNSAVKSRVTISKDTSKNQFSLKLSSVTAADTAVYYCARGGYYYGTSYYFDYWGQGTLVTVS VL: DIQMTQSPSSLSASVGDRVTITCRASQDISNHLNWYQQKPGKAPKLLIYYISRFHSGVPSRFSGSGSGTDFTFTISSLQPEDIATYYCQQSKTLPYTFGQGTKLEIKR | 0.00038 | 9.5 | 
light chain library clone L129 (Fab, V domains shown, paired with the CDR-grafted heavy chain; See note of m8) VH: QVQLQESGPGLVKPSETLSLTCTVSGFSLIGYDINWIRQPPGKGLEWIGMIWGDGTTDYNSALKSRVTISKDTSKNQFSLKLSSVTAADTAVYYCARGGYYYGTSYYFDYWGQGTLVTVS VL: DIQMTQSPSSLSASVGDRVTITCRASQSISNNLNWYQQKPGKAPKLLIYYTSRFHSGVPSRFSGSGSGTDFTFTISSLQPEDIATYYCQQSKTLPYTFGQGTKLEIKR | 0.00045 | 11 | 
light chain library clone L6 (Fab, V domains shown, See note of m8) VH: QVQLQESGPGLVKPSETLSLTCTVSGFSLIGYDINWIRQPPGKGLEWIGMIWGDGTTDYNSALKSRVTISKDTSKNQFSLKLSSVTAADTAVYYCARGGYYYGTSYYFDYWGQGTLVTVS VL: DIQMTQSPSSLSASVGDRVTITCRAFQSISNQLNWYQQKPGKAPKLLIYYASRFHSGVPSRFSGSGSGTDFTFTISSLQPEDIATYYCQQSKTLPYTFGQGTKLEIKR | 0.00082 | 20 | 
H19-L129 template Fab with L_S91E; L_K92R and H_Y101Y; H_G103A (Fab, V domains shown, See note of m8) VH: QVQLQESGPGLVKPSETLSLTCTVSGFSLIGYDLNWIRQPPGKGLEWIGIIWGDGTTDYNSAVKSRVTISKDTSKNQFSLKLSSVTAADTAVYYCARGGYYYATSYYFDYWGQGTLVTVS VL: DIQMTQSPSSLSASVGDRVTITCRASQSISNNLNWYQQKPGKAPKLLIYYTSRFHSGVPSRFSGSGSGTDFTFTISSLQPEDIATYYCQQERTLPYTFGQGTKLEIKR |  |  | Kd [5]: 0.37 nM; koff [6]: 1.5e-05 s⁻¹
H19-L129 template Fab with L_S91E; L_K92K and H_Y101Y; H_G103A (Fab, V domains shown, See note of m8) VH: QVQLQESGPGLVKPSETLSLTCTVSGFSLIGYDLNWIRQPPGKGLEWIGIIWGDGTTDYNSAVKSRVTISKDTSKNQFSLKLSSVTAADTAVYYCARGGYYYATSYYFDYWGQGTLVTVS VL: DIQMTQSPSSLSASVGDRVTITCRASQSISNNLNWYQQKPGKAPKLLIYYTSRFHSGVPSRFSGSGSGTDFTFTISSLQPEDIATYYCQQEKTLPYTFGQGTKLEIKR |  |  | Kd [5]: 0.5 nM; koff [6]: 2e-05 s⁻¹
heavy chain library clone H9 (Fab, V domains shown, See note of m8) VH: QVQLQESGPGLVKPSETLSLTCTVSGFSLIGYDVSWIRQPPGKGLEWIGIIWGDGTTDYNSSVKSRVTISKDTSKNQFSLKLSSVTAADTAVYYCARGGYYYGTSYYFDYWGQGTLVTVS VL: DIQMTQSPSSLSASVGDRVTITCRASQDISNHLNWYQQKPGKAPKLLIYYISRFHSGVPSRFSGSGSGTDFTFTISSLQPEDIATYYCQQSKTLPYTFGQGTKLEIKR | 0.00041 | 10.2 | 
light chain library clone L97 (Fab, V domains shown, See note of m8) VH: QVQLQESGPGLVKPSETLSLTCTVSGFSLIGYDINWIRQPPGKGLEWIGMIWGDGTTDYNSALKSRVTISKDTSKNQFSLKLSSVTAADTAVYYCARGGYYYGTSYYFDYWGQGTLVTVS VL: DIQMTQSPSSLSASVGDRVTITCRASQSISNQLNWYQQKPGKAPKLLIYYVSRFHSGVPSRFSGSGSGTDFTFTISSLQPEDIATYYCQQSKTLPYTFGQGTKLEIKR | 0.00056 | 14 | 
light chain library clone L81 (Fab, V domains shown, See note of m8) VH: QVQLQESGPGLVKPSETLSLTCTVSGFSLIGYDINWIRQPPGKGLEWIGMIWGDGTTDYNSALKSRVTISKDTSKNQFSLKLSSVTAADTAVYYCARGGYYYGTSYYFDYWGQGTLVTVS VL: DIQMTQSPSSLSASVGDRVTITCRAFQAISNQLNWYQQKPGKAPKLLIYYISRFHTGVPSRFSGSGSGTDFTFTISSLQPEDIATYYCQQSKTLPYTFGQGTKLEIKR | 0.00074 | 18 | 
heavy chain library clone H227 (Fab, V domains shown, See note of m8) VH: QVQLQESGPGLVKPSETLSLTCTVSGFSLIGYDISWIRQPPGKGLEWIGQIWGDGTTDYNSSVKSRVTISKDTSKNQFSLKLSSVTAADTAVYYCARGGYYYGTSYYFDYWGQGTLVTVS VL: DIQMTQSPSSLSASVGDRVTITCRASQDISNHLNWYQQKPGKAPKLLIYYISRFHSGVPSRFSGSGSGTDFTFTISSLQPEDIATYYCQQSKTLPYTFGQGTKLEIKR | 0.00054 | 13.5 | 

From patent US20170088610A1 (RINAT NEUROSCIENCE, published 2017)
